The record followed here is publication PMC5460288, “In vitro assembly of the Rous Sarcoma Virus capsid protein into hexamer tubes at physiological temperature” (Scientific Reports, 2017).

For data set [1], the target named is RSV CA carrying the C-terminal spacer peptide (CA-SP, CA + 12) (Rous Sarcoma Virus (strain Prague C)). As to the kind of experiment: cryo-EM structure; iterative real space helical reconstruction (SPRING) of one single-layered CA-SP tube, local C6 symmetrization of the turrets, 24 Å (FSC 0.143).
Data set [2] concerns the molecule itself. Put plainly: negative-stain transmission electron microscopy; 600–700 μM protein dialyzed 16–24 h (overnight) at 37 °C against neutral pH (pH 7) buffer with 25–150 mM NaCl; uranyl acetate stain.

Broadly, the stoichiometry N is a count of units in the complex or per binding partner. As to “RSV CA carrying the C-terminal spacer peptide (CA-SP, CA + 12) (natural protein)”, the stoichiometry N in data set [1] came out at 6.

B1: Rous Sarcoma Virus capsid protein (RSV CA), wild type (natural protein)
chain: PVVIKTEGPAWTPLEPKLITRLADTVRTKGLRSPITMAEVEALMSSPLLPHDVTNLMRVILGPAPYALWMDAWGVQLQTVIAAATRDPRHPANGQGRGERTNLNRLKGLADGMVGNPQGQAALLRPGELVAITASALQAFREVARLAEPAGPWADIMQGPSESFVDFANRLIKAVEGSDLPPSARAPVIIDCFRQKSQPDIQQLIRTAPSTLTTPGEIIKYVLDRQKTAPLTDQGIA
notes: capsid protein (CA), the cut product of the Gag polyprotein of Rous sarcoma virus strain Prague C; the naturally occurring species denoted CA (without spacer peptide residues); also called wild type RSV CA; full length RSV CA; not shown: Mycobacterium xenopi GyrA intein (modified), C-terminal, cleaved
With B1, the “stoichiometry N” value in data set [2] is 6.
